The labels stand for the following.
B1: Azoarcus group I ribozyme (parent)
chain: GUGCCUUGCGCCGGGAAACCACGCAAGGGAUGGUGUCAAAUUCGGCGAAACCUAAGCGCCCGCCCGGGCGUAUGGCAACGCCGAGCCAAGCUUCGGCGCCUGCGCCGAUGAAGGUGUAGAGACUAGACGGCACCCACCUAAGGCAAACGCUAUGGUGAAGGCAUAGUCCAGGGAGUGGCGAAAGUCACACAAACCGG

Variants of B1 are the subject of this data set. The experiment in a line: reverse-splicing fitness (ratio to wild type); higher = more active; in vitro selection; Mg2+ level not given. The gist of the method:
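An in vitro group I ribozyme library with randomized positions was T7-transcribed and gel-purified. In triplicate, 10 pmol RNA in EPPS pH 7.5 was reacted with 50 pmoles of a 30-nt RNA substrate for 1 h at 37 °C across several added MgCl2 levels (1–48 mM), then stopped with EDTA. Products were reverse transcribed from a substrate-complementary primer, PCR-amplified and sequenced (HiSeq 4000). Fitness is a variant's read proportion after selection over that before, normalised to wild type.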
As for C82G A120G A145C C150U C169A U176G, the reverse-splicing fitness is 0.00471.
As to C82G A120G A145C C150U C169A U176A, the reverse-splicing fitness was determined as 0.0126.
The value for C82G A120G A145C C150U C169A U176C was 0.00669; that for C82G A120G A145C C150G C169U U176C was 0.0125.
On to C82G A120G A145C C150G C169U U176A, for which the reverse-splicing fitness was found to be 0.0154.
With C82G A120G A145C C150G C169U U176G the figure was 0.00495.
With C82G A120G A145U U176C the figure was 0.0191.
C82G A120G A145U U176G: the reverse-splicing fitness stood at 0.0047.
As to C82G A120G A145U U176A, the reverse-splicing fitness came to 0.0157.
Regarding C82G A120G C150G C169G U176A, the reverse-splicing fitness worked out at 0.00768.
The value for C82G A120G C150G C169G U176G was 0.00466; that for C82G A120G C150G C169G U176C was 0.00511; that for C82G A120G A145C C150G C169G U176A was 0.00772.
The value for C82G A120G A145C C150G C169G U176G was 0.00412.
The value for C82G A120G A145C C150G C169G U176C was 0.00761; that for C82G A120U A145C C150A C169U U176C was 0.00224.
As to C82G A120U A145C C150A C169U U176G, the reverse-splicing fitness amounted to 0.00162.
With C82G A120U A145C C150A C169U U176A the figure was 0.0023; with C82G A120G A145G C150U U176C, 0.0211.
Consider C82G A120G A145G C150U U176G, for which the reverse-splicing fitness was 0.0072.
For C82G A120G A145G C150U U176A, the reverse-splicing fitness is 0.0107.
On to C82G A120G C150A C169G U176C, for which the reverse-splicing fitness came to 0.0228.
The value for C82G A120G C150A C169G U176A was 0.0215; that for C82G A120G C150A C169G U176G was 0.00479; that for C82G A120U A145C C169G U176A was 0.00239.
In the case of C82G A120U A145C C169G U176G, the reverse-splicing fitness worked out at 0.00141.
Regarding C82G A120U A145C C169G U176C, the reverse-splicing fitness is 0.00261.
With C82G A120G C150A C169U U176C the figure was 0.02.
With C82G A120G C150A C169U U176G the figure was 0.00754.
The value for C82G A120G C150A C169U U176A was 0.0248.
Take C82G A120G C150U: the reverse-splicing fitness stood at 0.0196.
For the variant C82G A120G C150A, the reverse-splicing fitness was 0.00962.
Turning to C82G A120G C150G, the reverse-splicing fitness stood at 0.00725.
With C82G A120G C169A U176A the figure was 0.0209; with C82G A120G C169A U176G, 0.00403.
Consider C82G A120G C169A U176C, for which the reverse-splicing fitness amounted to 0.0252.
With C82G A120U A145C C150G C169A U176C the figure was 0.00176; with C82G A120U A145C C150G C169A U176G, 0.00165; with C82G A120U A145C C150G C169A U176A, 0.00219.
Take C82G A120G A145G C150G U176A: the reverse-splicing fitness came to 0.00691.
The value for C82G A120G A145G C150G U176G was 0.00614.
The value for C82G A120G A145G C150G U176C was 0.011; that for C82G A120G A145C was 0.0276; that for C82G A120G A145G was 0.0281.
For the variant C82G A120G A145U, the reverse-splicing fitness stood at 0.0294.
Turning to C82G A120U A145C C150U C169A U176A, the reverse-splicing fitness worked out at 0.00222.
The value for C82G A120U A145C C150U C169A U176G was 0.00172; that for C82G A120U A145C C150U C169A U176C was 0.00192; that for C82G A120G A145U C150A C169A U176C was 0.0141.
The value for C82G A120G A145U C150A C169A U176G was 0.00465; that for C82G A120G A145U C150A C169A U176A was 0.014.
With C82G A120G A145C C169A U176A, the reverse-splicing fitness was determined as 0.0144.
With C82G A120G A145C C169A U176C the figure was 0.0123; with C82G A120G A145C C169A U176G, 0.0031.
For C82G A120G A145C C150A C169A U176G, the reverse-splicing fitness is 0.00483.
The value for C82G A120G A145C C150A C169A U176A was 0.0119; that for C82G A120G A145C C150A C169A U176C was 0.00516.
In the case of C82G A120G A145U C150A C169U U176C, the reverse-splicing fitness was 0.0145.
With C82G A120G A145U C150A C169U U176A the figure was 0.02; with C82G A120G A145U C150A C169U U176G, 0.00418; with C82G A120G A145U C150G C169A U176G, 0.00431.
Turning to C82G A120G A145U C150G C169A U176C, the reverse-splicing fitness is 0.0121.
Consider C82G A120G A145U C150G C169A U176A, for which the reverse-splicing fitness is 0.0112.
Turning to C82G A120G C150U C169U, the reverse-splicing fitness was found to be 0.0164.
Turning to C82G A120G C150U C169A, the reverse-splicing fitness amounted to 0.0193.
Turning to C82G A120G C150U C169G, the reverse-splicing fitness was determined as 0.0318.
C82G A120U A145G C150A C169A: the reverse-splicing fitness worked out at 0.00575.
The value for C82G A120G C169G U176A was 0.0234.
The value for C82G A120G C169G U176G was 0.00375; that for C82G A120G C169G U176C was 0.0324; that for C82G A120G A145G U176C was 0.0211.
With C82G A120G A145G U176A the figure was 0.0129; with C82G A120G A145G U176G, 0.00636; with C82G A120U A145C C150A C169A U176A, 0.0017.
As for C82G A120U A145C C150A C169A U176G, the reverse-splicing fitness was determined as 0.00157.
Regarding C82G A120U A145C C150A C169A U176C, the reverse-splicing fitness was 0.00208.
The value for C82G A120G A145G C169G was 0.0507; that for C82G A120G A145G C169U was 0.0249.
The value for C82G A120G A145G C169A was 0.0319; that for C82G A120G A145U C150G C169G U176C was 0.00564; that for C82G A120G A145U C150G C169G U176A was 0.00742.
In the case of C82G A120G A145U C150G C169G U176G, the reverse-splicing fitness turned out to be 0.00385.
For the variant C82G A120U A145C C150A C169G, the reverse-splicing fitness stood at 0.00199.
